Results as given in patent publication US20190263898A1 (UNIVERSITE GRENOBLE ALPES, published 2019).
Ends that are not written are not given here.

T1: truncated Tau protein in fiber form (polymerized R3 peptide) (also: polymerized (fiber form))
T1 construct: also called R3 peptide fibers; Mimetics (the R3 region of polymerized Tau)
T1 peptide: VQIVYKPVDLSKVTSKCG


Tests used:
[1] = molecular target: T2, Tau protein in oligomer form (preparation of htau40 enriched with Tau oligomers, 48 h fibrillation with … (Homo sapiens (Human), UniProt P10636 2-758)); assay: ELISA on preparation enriched with Tau oligomers
T2 construct: Oligomeric aggregate of full-length htau40; also called the oligomers; low-molecular-weight tau polymers

[2] = molecular target: T3, Tau protein in fiber form (preparation of htau40 enriched with Tau fibers, 72 h fibrillation with heparin) (Homo sapiens (Human), UniProt P10636 2-758); assay: ELISA, 2C5 titrated on a preparation enriched with Tau fibers (Tau-F)
T3 construct: Fibrillar aggregate of full-length htau40; also called Tau-F (Tau fibers); the fibers

[3] = molecular target: T1, truncated Tau protein in fiber form …; assay: ELISA on polymerized R3 peptide
[4] = molecular target: T4, native Tau protein (monomeric form) (Homo sapiens (Human), UniProt P10636 2-758); assay: ELISA, 2C5 titrated on native Tau (Tau-N)
T4 construct: also called Tau-N (native taus); Tau in monomer form

[5] = molecular target: T1, truncated Tau protein in fiber form …; assay: ELISA, unlabeled 2C5 titrated on polymers of the R3 sequence of Tau (R3 Fibers), PBS with 1% BSA, pH 7.5; PBS wells as control
Procedure: (§1) The ELISAs are carried out before (FIG. 5) and after (FIG. 6) radiolabeling. It is noted that, after radiolabeling, the ligand retains good affinity for its target (FIG. 6).

[6] = molecular target: T2, Tau protein in oligomer form …; assay: ELISA, 2C5 titrated on a preparation enriched with Tau oligomers (Tau-O)
[7] = molecular target: T3, Tau protein in fiber form (preparation …); assay: ELISA on preparation enriched with Tau fibers
[8] = molecular target: T1, truncated Tau protein in fiber form …; assay: ELISA, 2C5 titrated on polymerized R3 peptide (Mimes)
[9] = molecular target: T1, truncated Tau protein in fiber form …; assay: ELISA-format assay with 2C5 radiolabeled with iodine 125 on polymers of the R3 sequence of Tau, CPM readout (sheet title: RIA 125I 2C5), PBS with 1% BSA, pH 7.5; PBS wells as control
Procedure: as §1

T2 sequence (P10636 other isoform, or with tags, fused parts or gaps limits assumed): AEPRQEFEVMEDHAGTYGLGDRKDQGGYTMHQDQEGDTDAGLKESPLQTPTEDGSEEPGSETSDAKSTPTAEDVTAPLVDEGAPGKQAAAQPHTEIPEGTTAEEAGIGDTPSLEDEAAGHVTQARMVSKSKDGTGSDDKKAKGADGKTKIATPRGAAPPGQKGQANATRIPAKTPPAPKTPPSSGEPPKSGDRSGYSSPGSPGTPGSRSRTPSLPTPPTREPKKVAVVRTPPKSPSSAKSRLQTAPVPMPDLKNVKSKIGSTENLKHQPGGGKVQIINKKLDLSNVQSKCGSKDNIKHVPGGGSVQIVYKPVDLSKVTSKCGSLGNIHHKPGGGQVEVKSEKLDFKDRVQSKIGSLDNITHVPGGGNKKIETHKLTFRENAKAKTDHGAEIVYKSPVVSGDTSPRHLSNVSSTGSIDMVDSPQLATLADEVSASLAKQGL
T3 sequence (P10636 other isoform, or with tags, fused parts or gaps limits assumed): as above
T4 sequence (P10636 other isoform, or with tags, fused parts or gaps limits assumed): as above

Kd [1] [nM]	Kd [2] [nM]	Kd [3] [nM]	Kd [4] [nM]	Kd [5] [nM]	Kd [6] [nM]	Kd [7] [nM]	EC50 (read off the curve) [8] [nM]	Kd [8] [nM]	Kd [9] [nM]	Binder
5	5.02	50	1790	14.4	6.28	6	~50	51.8	–	2C5 nanobody (VHH) with C-terminal myc and six histidine residues tag (VHH, also called 2C5 Nb; 2C5 (VHH)) VHH: QVQLVQSGGGLVQAGGSLRLSCAASGRTFSSDTLAWFRQAPGKEREFVASISPSGGVTYYEDSVKGRFTISRDNSKNTVLLQMNSLTPEDTAVYYCNRDPKYGNTRYWGQGTQVTVSS
–	–	–	–	–	–	–	–	–	162	2C5 nanobody radiolabeled with iodine 125 (VHH, radiolabeled with iodine 125 (site not stated)) VHH: QVQLVQSGGGLVQAGGSLRLSCAASGRTFSSDTLAWFRQAPGKEREFVASISPSGGVTYYEDSVKGRFTISRDNSKNTVLLQMNSLTPEDTAVYYCNRDPKYGNTRYWGQGTQVTVSS
